# Variants at the floor of the assay were thinned out.
# B1: TPR 5TU (parent)
# chain: GGAUCUUCUCGAUCUAACAAAAAAGACAAAUCUGCCACAAAGCUUGAGAGCAUCUUCGGAUGCAGAGGCGGCAGCCUUCGGUGGCGCGAUAGCGCCAACGUUCUCAACUAUGACACGCAAAACGCGUGCUCCGUUGAAUGGAGUUUAUCAUG
# Variants of: B1
# Test: polymerase ribozyme fitness, log enrichment relative to wild type (log ratio); higher = more active; in vitro selection for triplet polymerase activity
# In short: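 Each subunit of a heterodimeric triplet polymerase ribozyme was mutagenized into a library by PCR, transcribed, and subjected to one round of in vitro selection, run in triplicate. Libraries were annealed with a biotinylated primer, the partner subunit and triplets, incubated frozen at −7 °C, and extended constructs were gel-excised, captured on streptavidin beads and recovered by RT-PCR. Input and output libraries were sequenced on Illumina, keeping genotypes with ≥10 input reads and ≥1 read per output. Fitness is log base 2 of genotype enrichment divided by wild-type enrichment, from inverse-variance-weighted replicate averages.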
row,Variant,polymerase ribozyme fitness (log ratio)
1,A21U A29C A89C U130C G140U G141A,≤ -4.2
2,A21C G25C U53A G74A C87G,≤ -4.2
3,A21C A47C A60G C93A,-1.98
4,A22C A30G A60G G68A C85A A91C G126A,≤ -4.2
5,A21U A29G C32A A64U G68U G84U A121U,≤ -4.2
6,A21G G74A A89U G92U,-3.57
7,A22G C123A A147U,1.6
8,A21G A26U C87A C125G U135C U146C,≤ -4.2
9,A22U U53A,-1.05
10,A22C,-0.18
11,A22G,0.56
12,A22U,0.491
13,A22U A26G C36A G42U C96G G128U C132G U144G,≤ -4.2
14,A22C C54A G94A A98U,-1.82
15,A22C C51U U56A G92U G100C U101G C103G G143U G152A,≤ -4.2
16,A22U G84A,-0.556
17,A22U C57A G70C U78A G80A,≤ -4.2
18,A21C C51U G59C G140A A142U,≤ -4.2
19,A22G G25U C38A A52G C96U,-2.43
20,A21G A52G C87U U90G A106G A107G,≤ -4.2
21,A22U G34A U55A G59C C95A C118G,-3.53

row,Variant,polymerase ribozyme fitness (log ratio)
1,A22G G84U,-2.74
2,A22U A47U C51U C95A C99U,-1.72
3,A22G A89C,-0.303
4,A22G U109G,-0.357
5,A22C A26U C36U C54U C85U A98U A106G,≤ -4.2
6,A22U A52C U55A G67U,≤ -4.2
7,A21C C57G C75A A98G A107U C123U A142U G143C,≤ -4.2
8,A22C A60G C96G C114A C131G,≤ -4.2
9,A20U U55G C96U U134G U144G,-3.67
10,A22U G25U C35U C76G G126U U135A,≤ -4.2
11,A21C C27A C43U A89U G92U G126A U145A U151C,≤ -4.2
12,A21C C87A G141C,≤ -4.2
13,A21G G124C,-0.489
14,A21U U44G C131U G136C G141U U151A,≤ -4.2
15,A21U C57A C93G A142C,-3.67
16,A21U A22U G46A G48C U56A G70C G83U G124A,≤ -4.2
17,A22C C27U U127C,-3.95
18,A22U C93U,-1.47
19,A21G G46U U55A U151G,≤ -4.2
20,A22C G81A,-0.137
21,A22G G86U,-0.647

row,Variant,polymerase ribozyme fitness (log ratio)
1,A21C A22U U53A C85A G124A,-2.42
2,A22G U82A G83A C105U,0.185
3,A21G C27G A29C A73C G74U C75G C85U G88A,≤ -4.2
4,A22U U53A G92A G141A,-3.56
5,A22C G84U A91U A107C G136C,≤ -4.2
6,A22U A37C C96U A142C,-1.63
7,A21G G59C C85U U102C C116G U134A,-4.09
8,A22U U53C G92U,-0.0274
9,A21U C35U G58A G68A A115G C118U G141A,≤ -4.2
10,A21U C57A A107C U139C A147C,≤ -4.2
11,A21G A49U C57G A150G,≤ -4.2
12,A22U A28U A37U G42C C54A C103A,≤ -4.2
13,A22G U55A U61A G94U,-3.37
14,A22U U55G C57U,0.196
15,A21G A30G C125U G133C,≤ -4.2
16,A20U G133C,-3.79
17,A22G U53A A66G C72G U90C U145G,≤ -4.2
18,A22U A49U U55A G84U G100U C108U,≤ -4.2
19,A22G G80A G86A C93A,-4.2
20,A21G C27U C38A C93G U101A U146C,≤ -4.2
21,A21C A89U U104A,-0.361

row,Variant,polymerase ribozyme fitness (log ratio)
1,A21C A52C C57U A64C A66C G71U A91U G100A C103U U127G,≤ -4.2
2,A22G C85U C114A U139G,-3.14
3,A21G U56A,-0.198
4,A21U G50A C63U C75U A97U,-1.25
5,A21G A26G C38G C72U C87G A89U A150G,≤ -4.2
6,A22U C105U G136C,-2.55
7,A22U C35A A41C U53G C87U A97C C108U U151A,≤ -4.2
8,A21U A26C A52C C54U G62A G68A G83C U139G,≤ -4.2
9,A20U U61A C75U G81U C99G U148G,≤ -4.2
10,A22C A40C C63G,0.514
11,A21U A26U A29G C35A G86U,-4.04
12,A21C G94A U148A,-3.72
13,A22U C54A G59C A122C G141A,-0.175
14,A21C A52C C57A G88A G92A A97U,≤ -4.2
15,A23C A26C A52U C63A C131U G141U U145C,≤ -4.2
16,A21U U135C,-1.61
17,A21C A24G A52G G67A C85A G141C,≤ -4.2
18,A22U C54U A107U U134C U145C,-4.02
19,A21U A28C G34U A39G,≤ -4.2
20,A20U U78A C95U,≤ -4.2
21,A23C A37C U53A A64C U90C C96G U101G,≤ -4.2

# From the RNAGym collection of RNA variant scans (doi:10.1073/pnas.2313332121)
